The results in this text go back to US20240150417A1 (CELLEMEDY, published 2024).

This experiment addresses T1, human transferrin receptor (human, UniProt P02786 89-760, limits assumed).
T1 construct: also called TfR Human; transferrin receptor 1
The experiment in a line: MST (Monolith NT.115), dye-labelled protein, receptor titrated. Here is the method: First, 100 μl of dye that specifically binds to a hexa-His tag (RED-tris-NTA 2nd Generation Dye) was prepared at a concentration of 50 nM, along with 100 μl of the produced protein at a concentration of 200 nM, followed by mixing the same and incubating at room temperature for 30 minutes. The incubated product was centrifuged at 13000 rpm for 10 minutes at 4° C. by a centrifuge, thus to separate the supernatant and obtain a dye-labeled protein.
Then, 25 μl of 9.65 μM transferrin receptor was added to the 1st PCR tube; 10 μl of PBS-T (PBS+0.5% tween 20) buffer was added to 2nd to 16th PCR tubes; 10 μl of transferrin in the 1st PCR tube was transferred to the 2nd PCR tube; and 10 μl was again transferred from the 2nd PCR tube to the 3rd PCR tube. Likewise, this procedure was continued up to the 16th tube thus to perform ½ dilution in a sequential order so that each of the 2nd to 16th PCR tubes becomes 20 μl.
Thereafter, 10 μl of the dye-labeled protein was added to each PCR tube, and the reaction was performed at room temperature for 1 hour.

T1 sequence (P02786 89-760 limits assumed): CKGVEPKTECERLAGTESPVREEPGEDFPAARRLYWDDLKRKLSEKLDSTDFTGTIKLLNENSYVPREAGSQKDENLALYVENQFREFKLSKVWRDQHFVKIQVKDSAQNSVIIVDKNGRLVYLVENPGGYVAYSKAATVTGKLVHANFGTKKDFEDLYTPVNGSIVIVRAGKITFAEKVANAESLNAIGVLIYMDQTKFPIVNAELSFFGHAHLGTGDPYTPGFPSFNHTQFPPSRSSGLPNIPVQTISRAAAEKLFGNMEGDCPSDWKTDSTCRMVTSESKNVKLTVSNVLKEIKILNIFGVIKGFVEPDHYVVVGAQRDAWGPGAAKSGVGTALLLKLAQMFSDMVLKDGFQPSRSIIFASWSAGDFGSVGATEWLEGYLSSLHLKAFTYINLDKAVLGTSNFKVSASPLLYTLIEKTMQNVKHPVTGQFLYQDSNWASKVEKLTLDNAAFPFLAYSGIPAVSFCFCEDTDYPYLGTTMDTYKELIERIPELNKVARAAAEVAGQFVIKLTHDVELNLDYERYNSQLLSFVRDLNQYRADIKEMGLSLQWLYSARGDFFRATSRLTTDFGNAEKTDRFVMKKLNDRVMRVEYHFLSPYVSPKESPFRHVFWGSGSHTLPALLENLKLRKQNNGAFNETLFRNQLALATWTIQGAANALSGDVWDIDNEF

B1: Din-gp100-huHF (other)
chain: MHHHHHHEFTTASTSQVRQNYHQDSEAAINRQINLELYASYVYLSMSYYFDRDDVALKNFAKYFLHQSHEEREHAEKLMKLQNQRGGRIFLQDIKKPDCDDWESGLNAMECALHLEKNVNQSLLELHKLATDKNDPHLCDFIETHYLNEQVKAIKELGDHVTNLRKVPRNQDWLKMGAPESGLAEYLFDKHTLGDSDNES
modifications: One monomer given; 24 monomers self-assemble. His tag carried RED-tris-NTA dye in MST.
notes: Self-assembled 24-mer; built from the site; also called gp100-huHF, TSA insertion site Din (the middle of D helix)
The Kd is the constant that tells how readily two partners part at equilibrium. A lower Kd goes with a tighter complex. The molecule B1 displayed a Kd of 29.3 nM.

B2: Ein-gp100-huHF (other)
chain: MHHHHHHEFTTASTSQVRQNYHQDSEAAINRQINLELYASYVYLSMSYYFDRDDVALKNFAKYFLHQSHEEREHAEKLMKLQNQRGGRIFLQDIKKPDCDDWESGLNAMECALHLEKNVNQSLLELHKLATDKNDPHLCDFIETHYLNEQVKAIKELGDHVTNLRKMGAPESGLAEYLFDKHKVPRNQDWLTLGDSDNES
notes: Self-assembled 24-mer; built from the site; also called gp100-huHF, TSA insertion site Ein (the middle of E helix)
For the molecule B2, the Kd was 6.28 nM.
